Results from patent US20240158496A1 (Johns Hopkins, published 2024).

Experiments:
[1] = molecular target: T1, CEACAM-1 on co-stimulated human T cells (human, UniProt P13688 35-526); assay: protein A-agarose immunoprecipitation of lysates of co-stimulated human PBMC treated for 6 d, CEACAM1 immunoblot
T1 construct: whole, on cells; Endogenous protein
T1 sequence (looked up): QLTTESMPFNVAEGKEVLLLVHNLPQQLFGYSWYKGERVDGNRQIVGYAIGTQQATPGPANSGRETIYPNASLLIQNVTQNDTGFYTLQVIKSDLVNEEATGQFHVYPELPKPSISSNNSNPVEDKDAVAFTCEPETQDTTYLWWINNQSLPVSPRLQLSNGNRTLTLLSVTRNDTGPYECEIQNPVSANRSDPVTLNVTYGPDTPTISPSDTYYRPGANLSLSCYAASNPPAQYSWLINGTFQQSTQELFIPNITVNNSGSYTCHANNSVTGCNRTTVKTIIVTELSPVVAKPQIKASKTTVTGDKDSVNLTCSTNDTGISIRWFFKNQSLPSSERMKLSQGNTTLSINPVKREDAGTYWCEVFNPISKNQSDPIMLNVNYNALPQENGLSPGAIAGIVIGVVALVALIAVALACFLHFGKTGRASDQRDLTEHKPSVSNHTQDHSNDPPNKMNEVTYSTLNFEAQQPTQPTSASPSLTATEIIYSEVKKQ
Method: (§1) The precipitated complexes were washed with immunoprecipitation buffer, re-suspended in NuPAGE sample buffer with reducing agent, boiled, resolved on a Bis-Tris Criterion XT Gel system and transferred to a PVDF membrane. Membranes were immunoblotted with primary antibodies [CEACAM1 (D1P4T); TIM3 (D5D5R™)] overnight, washed, incubated with secondary antibodies and visualized by Amersham ECL Western Blotting Detection Reagents.

[2] = molecular target: T2, recombinant human (rh) CEACAM-1 (human, UniProt P13688 35-428, limits assumed); assay: protein A-agarose pull-down, CEACAM1 immunoblot
T2 construct: Recombinant protein used in the in vitro protein A pull-down
T2 sequence (looked up): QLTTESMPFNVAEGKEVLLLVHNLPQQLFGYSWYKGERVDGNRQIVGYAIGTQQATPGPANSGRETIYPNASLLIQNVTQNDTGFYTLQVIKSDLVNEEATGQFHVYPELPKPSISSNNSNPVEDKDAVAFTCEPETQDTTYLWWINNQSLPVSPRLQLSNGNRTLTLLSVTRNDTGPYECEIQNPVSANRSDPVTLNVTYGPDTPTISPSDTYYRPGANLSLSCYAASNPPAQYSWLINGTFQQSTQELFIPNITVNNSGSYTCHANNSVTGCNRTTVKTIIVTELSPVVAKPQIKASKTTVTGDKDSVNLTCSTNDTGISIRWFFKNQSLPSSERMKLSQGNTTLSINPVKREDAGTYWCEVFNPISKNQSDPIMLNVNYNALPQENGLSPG
Method: as §1, with “Reagents. […] This assay is also used to evaluate the binding of any antibody-ligand trap comprising a ligand-binding sequence of a ligand-binding sequence of TIM-3 ectodomain(TIM-3ecd) to rh CEACAM-1.” for “Reagents.”

B1: α-PD1 mAb (nivolumab) (antibody)
heavy: not shown
light: not shown
notes: Parent antibody used as a control; also called α-PD1 antibody (nivolumab); a-PD1 mAb (nivolumab)
B1: no binding [1]; no binding (tested: 10 µg antibody with 5 µg rhCEACAM-1) [2].
